The test system of this assay is SW620 cells. Description: Cell viability of SW620 cells by cell counting after treatment with folate-conjugated chimeric proteins. Type of assay: cell-based. Conditions: 5 μM, Calbindin D9k host, folate by disulfide bond via 5 kDa PEG, 48 hours. On the procedure:
FIG. 3 illustrates the effects of chimeric proteins having different host peptides and the BH3 domain of Bid on the apoptosis of SW620 cells. […] The SW620 cells were treated with 5 μM of the indicated proteins. The proteins were conjugated to folate by a disulfide bond via a 5 kDa PEG. Cell viability was measured by cell counting 48 hours after treatment with the indicated proteins. Buffer treated cells were used as a reference (100% cell viability). The error bars indicate standard deviations across five repeating experiments.
FIG. 4 illustrates the effects of chimeric proteins having a Calbindin D9k host peptide and different BH3 domains on the apoptosis of SW620 cells. […] The SW620 cells were treated with 5 μM of the indicated proteins. The proteins were conjugated to folate by a disulfide bond via a 5 kDa PEG. Cell viability was measured by cell counting 48 hours after treatment with the indicated proteins. Buffer treated cells were used as a reference (100% viability). The error bars indicate standard deviations across five repeating experiments.
FIG. 7 illustrates the effects of a chimeric protein with a Calbindin D9k host protein, a Bid or Bim BH3 domain, and a conjugated folate on SW620 cells. […] Cell viability was measured by counting cells 48 hours after treatment with the indicated proteins. […]

B1: D-Nox: chimeric protein, Calbindin D9k host with BH3 domain of Noxia, Sequence Id No. 8; tested conjugated to folate (protein)
chain: HMSTKKSPEELKRIFEKYAAKEGDPDQLSKDELKLLIQAEFPCLLKGPNTLDDLFQELDKNPAELEVEMATQLRRFGDKLNFRQKLL
modifications: folate conjugate; Chimeric Variant of human protein and a variant of a BH3 domain
notes: tested conjugated to folate
As for B1, the “induction of apoptosis (cell viability), comparison of BH3 domains” value is given as “most effective in inducing apoptosis”.

Values taken from patent publication US11459364B2, “Calbindin and BH3 domain chimeric proteins and methods for use” (ProDa Biotech LLC, priority 2014, dated 2022).
